Assay [1] has as its target HLA-A*0101 (human). The assay can be described thus: competition with 125I-labelled standard peptide for purified HLA-A*0101, gel filtration. A general note: Size exclusion chromatography separates by hydrodynamic size, large species first.
Assay [2] addresses HLA-A*2402 (human). The assay can be described thus: competition with 125I-labelled standard peptide for purified HLA-A*2402, gel filtration.
The target in assay [3] is HLA-A*2402 (human). The assay can be described thus: competition with 125I-labelled standard probe peptide for purified HLA-A*2402, gel filtration.
Assay [4] addresses HLA-A*1101 (human). The assay can be described thus: competition with 125I-labelled standard probe peptide for purified HLA-A*1101, gel filtration.
For assay [5], the target named is HLA-A*0101 (human). The assay can be described thus: competition with 125I-labelled standard peptide 944.02 ([..]) for purified HLA-A*0101, gel filtration.
Assay [6] addresses HLA-A*1101 (purified HLA class I molecule) (human).
The target of assay [7] is HLA-A*1101 (human). The assay is described as follows: competition with 125I-labelled standard peptide for purified HLA-A*1101, gel filtration.
Assay [8] deals with HLA-B*5301 (human). The assay can be described thus: competition with 125I-labelled standard peptide for purified HLA, gel filtration.
The target of assay [9] is HLA-B*0702 (human). The assay is described as above.
Another assay deals with HLA-B*5401 (human). The description is as above.
For assay [10], the target named is HLA-B*3501 (human). Described as above.
Assay [11] has as its target HLA-B*5101 (human). The description is as above.
Assay [12] has as its target HLA-A*1101 (human). The assay is described as follows: inhibition of 125I-labeled standard peptide binding to purified HLA, gel filtration.
Assay [13] deals with HLA-A*0301 (human). Described as above.
Assay [14] has as its target HLA-B*0702 (human). The assay is described as follows: competition with 125I-labeled standard peptide for purified HLA, gel filtration.
The target of assay [15] is HLA-A*0301 (human). The assay is described as follows: competition with 125I-labeled standard peptide for purified HLA-A*0301, gel filtration.
The target in assay [16] is HLA-A*0301 (human). The assay can be described thus: competitive inhibition of 125I-labelled standard peptide binding to purified HLA-A*0301, gel filtration. As to conditions: remark: other sources report otherwise.
Assay [17] concerns the target HLA-B*5301 (human). The assay is described as follows: competition with 125I-labeled standard probe peptide for purified HLA, gel filtration.
Assay [18] deals with HLA-B*0702 (human). Described as above.
Assay [19] deals with HLA-B*3501 (human). Described as above.
Assay [20] has as its target HLA-B*5101 (human). Described as above.
[21] abbreviates: remark: other sources report otherwise.

Read-outs that look alike come from different tables or passages of the source.

Turning to QPETTDLY (modifications not checked) [QPETTDLY (HPV16 E7, position 16, 8 amino acids)], the relative binding ratio (IC50 of standard peptide / IC50 of test peptide) with HLA-A*0101 (human) [1] turned out to be 0.001.
As for PYAVCDKCLKF (modifications not checked) [HPV16 E6 66 …], the relative binding ratio (IC50 of standard peptide / IC50 of test peptide) (ratio to standard peptide) with HLA-A*2402 (human) [2] is 0.11. For the same molecule, the relative binding ratio (IC50 of standard peptide / IC50 of test peptide) with HLA-A*2402 (human) [3] stood at 0.11.
Take LTTNIHPAK (modifications not checked) [HPV18 E1 571 …]: the binding affinity ratio (IC50 of standard peptide / IC50 of test peptide) with HLA-A*1101 (human) [4] came out at 0.12.
With CIVYRDGNPY (modifications not checked) [HPV16 E6 58 …], the binding affinity ratio (IC50 of standard peptide / IC50 of test peptide) with HLA-A*0101 (human) [5] was determined as 0.0015.
Take SVYGDTLEK (modifications not checked) [HPV18 E6 84-92 peptide …]: the relative binding ratio (IC50 of standard peptide / IC50 of test peptide) in assay [6] amounted to 0.23.
For LTEVFEFAFK (modifications not checked) [HPV18 E6 41-50 peptide …], the relative binding ratio (IC50 of standard peptide / IC50 of test peptide) in assay [6] was determined as 0.036.
Turning to VCDKCLKFY (modifications not checked) [… (HPV16 E6, position 69, 9 amino acids)], the values for the relative binding ratio (IC50 of standard peptide / IC50 of test peptide) with HLA-A*1101 (human) [7] and with HLA-A*0101 (human) [1] were 0.0002 and 0.0017, respectively.
With TGLYNLLIR (modifications not checked) [HPV18 E6 96-104 peptide …], the relative binding ratio (IC50 of standard peptide / IC50 of test peptide) in assay [6] was determined as 0.0002.
Consider HGDTPTLHEY (modifications not checked) [… (HPV16 E7, position 2, 10 amino acids)], for which the relative binding ratio (IC50 of standard peptide / IC50 of test peptide) stood at 0.0001 with HLA-A*1101 (human) [7] (setting [21]) and 0.003 with HLA-A*0101 (human) [1] (setting [21]).
Turning to GPKATLQDIV (modifications not checked) [HPV18 E7 peptide … (position 3, 10 amino acids)], the binding affinity ratio (IC50 of standard peptide / IC50 of test peptide) with HLA-B*5301 (human) [8], with HLA-B*0702 (human) [9], in the assay with HLA-B*5401 (human), with HLA-B*3501 (human) [10] and in the assay with HLA-B*5101 (human) [11] was 0.0001 each time.
Turning to RFHNIAGHYR (modifications not checked) [HPV18 E6 126-135 peptide …], the relative binding ratio (IC50 of standard peptide / IC50 of test peptide) in [6] amounted to 0.0057.
On to ETTDLYCY (modifications not checked) [ETTDLYCY (HPV16 E7, position 18, 8 amino acids)], for which the relative binding ratio (IC50 of standard peptide / IC50 of test peptide) with HLA-A*1101 (human) [7] (setting [21]) amounted to 0.0001; with HLA-A*0101 (human) [1] (setting [21]), 0.078.
Consider GMVVLLLVR (modifications not checked) [HPV16 E1 peptide … (position 272, 9 amino acids)], for which the binding affinity ratio (IC50 of standard peptide / IC50 of test peptide) with HLA-A*1101 (human) [12] worked out at 0.0082; with HLA-A*0301 (human) [13], 0.0036.
Take NIHPAKDNR (modifications not checked) [HPV18 E1 574 …]: the binding affinity ratio (IC50 of standard peptide / IC50 of test peptide) with HLA-A*1101 (human) [4] came to 0.0002.
Regarding LPQLCTEL (modifications not checked) [HPV16 E6 19 LPQLCTEL], the binding affinity ratio (IC50 of standard peptide / IC50 of test peptide) with HLA-B*0702 (human) [14] turned out to be 0.0055.
Regarding EGTGCNGWFY (modifications not checked) [HPV18 E1 10-19 peptide …], in the assay with HLA-A*1101 (human) [4], the relative binding ratio (IC50 of standard peptide / IC50 of test peptide) amounted to 0.0002.
On to QYNKPLCDLL (modifications not checked), for which, in the assay with HLA-A*2402 (human) [2], the relative binding ratio (IC50 of standard peptide / IC50 of test peptide) (ratio to standard peptide) amounted to 0.0015. In addition, the relative binding ratio (IC50 of standard peptide / IC50 of test peptide) in the assay with HLA-A*2402 (human) [3] came to 0.0015.
In the case of QAEPDRAHY (modifications not checked) [… (HPV16 E7, position 44, 9 amino acids)], the relative binding ratio (IC50 of standard peptide / IC50 of test peptide) was found to be 0.0002 with HLA-A*1101 (human) [7] and 0.021 in the assay with HLA-A*0101 (human) [1].
In the case of LTNILNVLK (modifications not checked) [HPV16 E1 peptide … (position 191, 9 amino acids)], the binding affinity ratio (IC50 of standard peptide / IC50 of test peptide) with HLA-A*1101 (human) [12] came to 0.42; with HLA-A*0301 (human) [13] it was 0.0086.
With GTTLEQQY (modifications not checked) [HPV16 E6 92 GTTLEQQY], the binding affinity ratio (IC50 of standard peptide / IC50 of test peptide) with HLA-A*0101 (human) [5] was determined as 0.0006.
Consider DTPTLHEY (modifications not checked) [DTPTLHEY (HPV16 E7, position 4, 8 amino acids)], for which the relative binding ratio (IC50 of standard peptide / IC50 of test peptide) with HLA-A*0101 (human) [1] turned out to be 0.0002.
Take DTPTLHEY (modifications not checked) [HPV16 E7 4 DTPTLHEY]: the binding affinity ratio (IC50 of standard peptide / IC50 of test peptide) with HLA-A*0101 (human) [5] was 0.0002.
For the molecule AVCDKCLKFY (modifications not checked) [HPV16 E6 68 …], the binding affinity ratio (IC50 of standard peptide / IC50 of test peptide) with HLA-A*0101 (human) [5] amounted to 0.0095.
Turning to LILALLRYK (modifications not checked) [HPV18 E1 281 …], the binding affinity ratio (IC50 of standard peptide / IC50 of test peptide) with HLA-A*1101 (human) [4] was 0.18.
Take KAAMLAKFK (modifications not checked) [HPV16 E1 peptide … (position 204, 9 amino acids)]: the binding affinity ratio (IC50 of standard peptide / IC50 of test peptide) in the assay with HLA-A*1101 (human) [12] came to 0.18; with HLA-A*0301 (human) [13] it was 0.11.
For NSGQKKAKR (modifications not checked) [HPV18 E1 119 …], the binding affinity ratio (IC50 of standard peptide / IC50 of test peptide) with HLA-A*1101 (human) [4] came out at 0.0002.
As to PPKLRSTAA (modifications not checked) [HPV16 E1 309 …], the binding affinity ratio (IC50 of standard peptide / IC50 of test peptide) in the assay with HLA-B*0702 (human) [14] worked out at 0.0014.
In the case of RFHNIAGHY (modifications not checked) [HPV18 E6 126-134 peptide …], the relative binding ratio (IC50 of standard peptide / IC50 of test peptide) in [6] was found to be 0.0002.
As for GTTLEQQY (modifications not checked) [GTTLEQQY (HPV16 E6, position 92, 8 amino acids)], the relative binding ratio (IC50 of standard peptide / IC50 of test peptide) with HLA-A*0101 (human) [1] came to 0.0006.
As to VVYRDSIPH (modifications not checked) [HPV18 E6 54-62 peptide …], the relative binding ratio (IC50 of standard peptide / IC50 of test peptide) in [6] was found to be 0.38.
In the case of IVYRDGNPY (modifications not checked) [HPV16 E6 59 …], the relative binding ratio (IC50 of standard peptide / IC50 of test peptide) with HLA-A*2402 (human) [3] (setting [21]) was 0.0001. For the same molecule, the binding affinity ratio (IC50 of standard peptide / IC50 of test peptide) with HLA-A*0101 (human) [5] (setting [21]) was found to be 0.0018.
For the molecule AICIEKQSR (modifications not checked) [HPV16 E1 peptide … (position 112, 9 amino acids)], the relative binding ratio (IC50 of standard peptide / IC50 of test peptide) (ratio to standard peptide) with HLA-A*0301 (human) [15] came to 0.001. Also, the binding affinity ratio (IC50 of standard peptide / IC50 of test peptide) with HLA-A*1101 (human) [12] came to 0.0057; with HLA-A*0301 (human) [13], 0.001.
In the case of LSLHEDEDK (modifications not checked) [HPV16 E1 peptide … (position 620, 9 amino acids)], the binding affinity ratio (IC50 of standard peptide / IC50 of test peptide) with HLA-A*1101 (human) [12] was found to be 0.0002; in the assay with HLA-A*0301 (human) [13] it was 0.0005.
For the molecule ETTDLYCY (modifications not checked) [HPV16 E7 18 ETTDLYCY], the relative binding ratio (IC50 of standard peptide / IC50 of test peptide) in the assay with HLA-A*2402 (human) [3] (setting [21]) amounted to 0.0001. Moreover, the binding affinity ratio (IC50 of standard peptide / IC50 of test peptide) with HLA-A*0101 (human) [5] (setting [21]) was 0.078. Moreover, the relative binding ratio (IC50 of standard peptide / IC50 of test peptide) (ratio to standard peptide) with HLA-A*0301 (human) [16] amounted to 0.0002.
On to NTGLYNLLIR (modifications not checked) [HPV18 E6 95-104 peptide …], for which the relative binding ratio (IC50 of standard peptide / IC50 of test peptide) in assay [6] came out at 0.0013.
With SPRLQEISL (modifications not checked) [HPV18 E1 110 peptide …], the binding affinity ratio (IC50 of standard peptide / IC50 of test peptide) in the assay with HLA-B*5301 (human) [17] came to 0.0002; with HLA-B*0702 (human) [18] it was 0.62; with HLA-B*3501 (human) [19], 0.0008; with HLA-B*5101 (human) [20], 0.0005.
With QYNKPLCDL (modifications not checked), in the assay with HLA-A*2402 (human) [2], the relative binding ratio (IC50 of standard peptide / IC50 of test peptide) (ratio to standard peptide) is 0.0001. Further, the relative binding ratio (IC50 of standard peptide / IC50 of test peptide) with HLA-A*2402 (human) [3] came to 0.0001.
Turning to DLQPETTDLY (modifications not checked) [HPV16 E7 14 …], the binding affinity ratio (IC50 of standard peptide / IC50 of test peptide) in the assay with HLA-A*0101 (human) [5] (setting [21]) was 0.002. In addition, the relative binding ratio (IC50 of standard peptide / IC50 of test peptide) (ratio to standard peptide) in the assay with HLA-A*0301 (human) [16] was found to be 0.0002.

(Values after patent US7026443.)
